Substitutions are numbered along the chain they refer to.
B1: 18.3.3(TPP-2193): comparative anti-TWEAKR antibody; variable domains from WO2009/020933, constant region added, "resulting in full-length IgGs" (protein)
light: DIVLTQSPASLAVSLGQRATISCKASQSVSTSTYSYMQWYQQRPGQSPKLLIKYASKLDSGVPARFSGSGSGTDFTLNIHPVEEEDTATYYCQHSWELPYTFGGGTRLEIKRADAAPTVSIFPPSSEQLTSGGASVVCFLNNFYPKDINVKWKIDGSERQNGVLNSWTDQDSKDSTYSMSSTLTLTKDEYERHNSYTCEATHKTSTSPIVKSFNRNEC
heavy: EVKLGESGGGLVQPGGSMKLSCVASGFPFTKYWMNWVRQSPEKGLEWVAEIRLKSDNYATHYAESAKGRFTISRDDSRSSVYLQMNNLRAEDTAIYYCSPTYADTMDYWGQGTSVTVSSAKTTAPSVYPLAPVCGDTTGSSVTLGCLVKGYFPEPVTLTWNSGSLSSGVHTFPAVLQSDLYTLSSSVTVTSSTWPSQSITCNVAHPASSTKVDKKIEPRGPTIKPCPPCKCPAPNLLGGPSVFIFPPKIKDVLMISLSPIVTCVVVDVSEDDPDVQISWFVNNVEVHTAQTQTHREDYNSTLRVVSALPIQHQDWMSGKEFKCKVNNKDLPAPIERTISKPKGSVRAPQVYVLPPPEEEMTKKQVTLTCMVTDFMPEDIYVEWTNNGKTELNYKNTEPVLDSDGSYFMYSKLRVEKKNWVERNSYSCSVVHEGLHNHHTTKSFSRTPG
modifications: Mus Musculus
B2: 136.1: "agonistic antibodies already described [e.g. PDL-192(TPP-1104), P4A8(TPP-1324), 136.1(TPP-2194)]" (protein)
light: B1 light with A12T, K24R, T33S, S47P, S56T, K57N, T87A, L98I, R107K
heavy: EVKLEESGGGLVQPGGSMKLSCVASGFTFNNYWMSWVRQSPEKGLEWLAEIRLKSDNYATHYAESVKGKFTISRDDSKSRLYLQMNNLRAENTGIYYCTGGFADYFDYWGQGTTLTVSSAKTTAPSVYPLAPVCGDTTGSSVTLGCLVKGYFPEPVTLTWNSGSLSSGVHTFPAVLQSDLYTLSSSVTVTSSTWPSQSITCNVAHPASSTKVDKKIEPRGPTIKPCPPCKCPAPNLLGGPSVFIFPPKIKDVLMISLSPIVTCVVVDVSEDDPDVQISWFVNNVEVHTAQTQTHREDYNSTLRVVSALPIQHQDWMSGKEFKCKVNNKDLPAPIERTISKPKGSVRAPQVYVLPPPEEEMTKKQVTLTCMVTDFMPEDIYVEWTNNGKTELNYKNTEPVLDSDGSYFMYSKLRVEKKNWVERNSYSCSVVHEGLHNHHTTKSFSRTPG
modifications: Mus Musculus

What was measured:
Caco-2 cells = assay: Cell permeability, flux assay using Caco-2 cells
TWEAKR-Fc mutein T33Q = biological target: T1, TWEAKR-Fc mutein T33Q (Homo sapiens, UniProt Q9NP84, T33Q); assay: ELISA, effect of TWEAKR-Fc muteins on antibody binding; settings: 62 ng/ml mutein coated, biotinylated IgG from 100 nM
T1 construct: the full-length ectodomain (amino acids 28-80); made in house
Experimental: (§1) Effect of TWEAKR-Fc Muteins on the Antibody Affinity
(§2) To this end, the full-length ectodomain (amino acids 28-80) having the individual amino acid substitutions below were expressed and purified as Fc fusion proteins: T33Q; S40R; W42A; M50A; R56P; H60K; L65Q.
(§3) Detection was carried out using streptavidin-HRP and Amplex Red.
(§4) The dose-reaction data were fitted and the IC50s were determined.

TWEAKR-Fc WT (TPP-599) = biological target: T2, TWEAKR-Fc WT (TPP-599) (Homo sapiens, UniProt Q9NP84); assay: as above; settings: 62 ng/ml TWEAKR-Fc coated, biotinylated IgG from 100 nM
T2 construct: hTNFRSF12 amino acids a28-80-hIgG1-Fc
Experimental: as §1, §2, §3, §4

TWEAKR-Fc mutein M50A = biological target: T3, TWEAKR-Fc mutein M50A (Homo sapiens, UniProt Q9NP84, M50A); assay: as above; settings: 62 ng/ml mutein coated, biotinylated IgG from 100 nM
T3 construct: the full-length ectodomain (amino acids 28-80); made in house
Experimental: as §1, §2, §3, §4

TWEAKR-Fc mutein L65Q = biological target: T4, TWEAKR-Fc mutein L65Q (Homo sapiens, UniProt Q9NP84, L65Q); assay: as above; settings: 62 ng/ml mutein coated, biotinylated IgG from 100 nM
T4 construct: the full-length ectodomain (amino acids 28-80); made in house
Experimental: as §1, §2, §3, §4

TWEAKR-Fc mutein S40R = biological target: T5, TWEAKR-Fc mutein S40R (Homo sapiens, UniProt Q9NP84, S40R); assay: as above; settings: 62 ng/ml mutein coated, biotinylated IgG from 100 nM
T5 construct: the full-length ectodomain (amino acids 28-80); made in house
Experimental: as §1, §2, §3, §4

TWEAKR-Fc mutein W42A = biological target: T6, TWEAKR-Fc mutein W42A (Homo sapiens, UniProt Q9NP84, W42A); assay: as above; settings: 62 ng/ml mutein coated, biotinylated IgG from 100 nM
T6 construct: the full-length ectodomain (amino acids 28-80); made in house
Experimental: as §1, §2, §3, §4

TWEAKR-Fc mutein H60K = biological target: T7, TWEAKR-Fc mutein H60K (Homo sapiens, UniProt Q9NP84, H60K); assay: as above; settings: 62 ng/ml mutein coated, biotinylated IgG from 100 nM
T7 construct: the full-length ectodomain (amino acids 28-80); made in house
Experimental: as §1, §2, §3, §4

TWEAKR-Fc mutein R56P = biological target: T8, TWEAKR-Fc mutein R56P (Homo sapiens, UniProt Q9NP84, R56P); assay: as above; settings: 62 ng/ml mutein coated, biotinylated IgG from 100 nM
T8 construct: the full-length ectodomain (amino acids 28-80); made in house
Experimental: as §1, §2, §3, §4

[1] = biological target: T9, recombinant human TWEAKR protein (TPP-2305) (Homo sapiens, UniProt Q9NP84); assay: Binding affinities by Biacore analysis; settings: monovalent
T9 construct: purchased Fitzgerald Inc 30R-AT080
Experimental: Determination of Binding Affinities by Biacore Analysis:
Binding affinities of anti-TWEAKR antibodies were examined using surface plasmon resonance analysis on a Biacore T100 instrument (GE Healthcare Biacore, Inc.). The antibodies were immobilized on a CM5 sensor chip using an indirect capture reagent, anti-human IgG(Fc). […] Anti-TWEAKR antibodies were injected at a concentration of 10 μg/ml at […] for 10 sec.
Sensorgrams were generated after in-line reference cell correction, followed by subtraction of the buffer sample. The dissociation constant (KD) was calculated based on the ratio of association (kon) and dissociation (koff) constants, obtained by fitting sensorgrams using a 1:1 first order binding model.

[2] = biological target: T9, recombinant human TWEAKR protein (TPP-2305); settings: published data (WO2009/020933, WO2009/140177, literature); cited from earlier work

Molecule	Papp (B-A) (Caco-2 cells; Caco-2, 2 hours)	Efflux ratio (Caco-2 cells; Papp (B-A) to Papp (A-B), Caco-2)	IC50 (TWEAKR-Fc mutein T33Q)	IC50 (TWEAKR-Fc WT (TPP-599))	IC50 (TWEAKR-Fc mutein M50A)	IC50 (TWEAKR-Fc mutein L65Q)	IC50 (TWEAKR-Fc mutein S40R)	IC50 (TWEAKR-Fc mutein W42A)	IC50 (TWEAKR-Fc mutein H60K)	IC50 (TWEAKR-Fc mutein R56P)	ka [1]	kd [1]	Kd [2]
CC(C)(C)[C@H](c1nn(-c2cc(F)ccc2F)cc1Cc1ccccc1)N(CC[C@H](N)C(=O)NCCC(=O)NCCN1C(=O)CC(SC[C@H](N)C(=O)O)C1=O)C(=O)CO.O=C(O)C(F)(F)F (some centres unmarked) [Example 92]	0.4 ×10⁻⁶ cm/s	3	–	–	–	–	–	–	–	–	–	–	–
B1	–	–	0.001 to 0.15 nM	0.001 to 0.15 nM	0.001 to 0.15 nM	0.001 to 0.15 nM	0.001 to 0.15 nM	> 50 nM	0.001 to 0.15 nM	> 50 nM	1.64e+07 M⁻¹ s⁻¹	0.0285 s⁻¹	0.2 nM
B2	–	–	–	–	–	–	–	–	–	–	–	–	0.7 nM
